T1: ApoE4 amino acids 1-210, expressed on yeast (human, UniProt P02649 19-228)
T1 construct: with myc tag, on yeast cells; range counts on the mature protein; also called N terminal domain; not shown: myc tag and yeast surface-display partner
T1 chain: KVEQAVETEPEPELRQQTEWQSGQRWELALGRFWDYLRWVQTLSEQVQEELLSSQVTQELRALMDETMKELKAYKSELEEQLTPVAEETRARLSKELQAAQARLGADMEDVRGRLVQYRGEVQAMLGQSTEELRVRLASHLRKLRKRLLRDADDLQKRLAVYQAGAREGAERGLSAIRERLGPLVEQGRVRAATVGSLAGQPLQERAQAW

T2: ApoE4 amino acids 54-164, expressed on yeast (human, UniProt P02649 72-182)
T2 construct: with myc tag, on yeast cells; expression in yeast printed as Low; range counts on the mature protein; also called helix2 + 3 + 4
T2 chain: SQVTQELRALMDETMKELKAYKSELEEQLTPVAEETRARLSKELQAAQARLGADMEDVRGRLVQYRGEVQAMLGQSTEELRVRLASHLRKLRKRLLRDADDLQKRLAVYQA

T3: ApoE4 amino acids 24-164, expressed on yeast (human, UniProt P02649 42-182)
T3 construct: with myc tag, on yeast cells; range counts on the mature protein; also called helix1 + 2 + 3 + 4
T3 chain: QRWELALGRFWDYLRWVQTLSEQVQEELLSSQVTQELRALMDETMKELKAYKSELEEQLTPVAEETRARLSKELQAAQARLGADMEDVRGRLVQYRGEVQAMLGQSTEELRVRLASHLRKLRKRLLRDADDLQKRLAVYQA

T4: ApoE4 amino acids 1-164, expressed on yeast (human, UniProt P02649 19-182)
T4 construct: with myc tag, on yeast cells; range counts on the mature protein; also called up to helix 4; not shown: myc tag and yeast surface-display partner
T4 chain: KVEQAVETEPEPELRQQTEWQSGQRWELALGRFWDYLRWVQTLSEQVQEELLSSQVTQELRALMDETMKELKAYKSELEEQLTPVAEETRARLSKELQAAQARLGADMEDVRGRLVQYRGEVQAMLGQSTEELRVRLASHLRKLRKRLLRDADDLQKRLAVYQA

T5: murine ApoE (mouse, UniProt P08226 19-311)
T5 sequence (looked up): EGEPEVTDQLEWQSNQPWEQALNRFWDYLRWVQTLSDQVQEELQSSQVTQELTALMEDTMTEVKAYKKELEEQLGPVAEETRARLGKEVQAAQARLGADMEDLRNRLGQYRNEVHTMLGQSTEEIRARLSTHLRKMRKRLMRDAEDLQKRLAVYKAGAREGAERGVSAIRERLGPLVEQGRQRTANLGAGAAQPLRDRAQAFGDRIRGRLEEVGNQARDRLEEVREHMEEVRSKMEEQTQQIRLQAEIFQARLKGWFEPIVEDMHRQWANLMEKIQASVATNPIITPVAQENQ

T6: ApoE4 amino acids 1-132, expressed on yeast (human, UniProt P02649 19-150)
T6 construct: with myc tag, on yeast cells; range counts on the mature protein; also called up to helix 3; not shown: myc tag and yeast surface-display partner
T6 chain: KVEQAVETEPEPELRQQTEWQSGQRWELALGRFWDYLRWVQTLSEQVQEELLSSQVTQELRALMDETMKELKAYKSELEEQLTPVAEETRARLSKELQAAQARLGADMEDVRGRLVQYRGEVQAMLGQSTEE

T7: ApoE4 amino acids 24-125, expressed on yeast (human, UniProt P02649 42-143)
T7 construct: with myc tag, on yeast cells; range counts on the mature protein; also called helix1 + 2 + 3
T7 chain: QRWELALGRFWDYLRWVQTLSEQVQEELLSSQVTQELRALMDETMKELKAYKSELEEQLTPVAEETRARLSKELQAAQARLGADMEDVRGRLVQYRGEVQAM

B1: HJ155 (antibody, V domains shown)
VH: RVQLQQSGPGLVKPGASVKISCKASGYTFTDYYINWVRQRPGQGLEWIGWIFPGSGITYYNEKFKGKATLTVDRSSSTAYMLLSSLTSEDSAVYFCARYAYGSPFAYWGQGTLVTVSA
VL: DVLMTQTPLSLPVSLGDQASISCRSSQSIVHSNGNTYLEWYLQKPGQSPKLLIYKVSNRFSGVPDRFSGSGSGTDFTLKISRVEAEDLGVYYCFQGSHVPYTFGGGTKLEIKR
notes: murine monoclonal antibody from hybridoma; also called HJ155B (biotinylated)
B2: HJ1526 (antibody, V domains shown)
VH: QVQLQQPGTALVKPGASVKLSCKSSGYTFTDYWVHWVKQRPGQGLEWIGNINPRNGGINYNENFKGKAILTVDRSFSIAYMQLNSLTSEDSAVYYCARPGATVVHRTPWFAHWGQGTLVTVSA
VL: EIVLTQSPALMAASPGEKVTITCSVSSSISSSNLHWFQQKSETSPKPWIFGTSYLASGVPVRFSGSGSGTSYSLTISSMEAEDAATYYCQQWNSYPLTFGAGTKLELR
notes: murine monoclonal antibody from hybridoma
B3: HJ152 (antibody, V domains shown)
VH: EVKLEESGGGLVQPGGSMKLSCAASGFSFSDAWMDWVRQSPEKGLEWVAEIRNKADNHATFYAESVKGRFTISRDDSKSSVYLQMNSLRAEDSGIYYCLLWDYWGQGTTLTVSS
VL: DIVMSQSPSSLAVSAGEKVTMSCKSSQSLLNSRTRKHFLAWYQQKPGQSPKVLIYWASSRESGVPDRFTGSGSGTDFTLTISSVQAEDLAVYYCKQSCNLPWTFGGGTKLEIKR
notes: murine monoclonal antibody from hybridoma; also called HJ152B (biotinylated)

Key:
[1] = target: T1, ApoE4 amino acids 1-210, expressed on …; test: yeast display of myc-tagged ApoE4 fragment, antibody staining
Protocol: (§1) Epitope binding of various anti-ApoE antibodies was evaluated multiple ways. Different sequences of human ApoE were expressed on the surface of yeast by yeast display using different plasmids. Different anti-ApoE antibodies were then assessed to determine binding to the different ApoE sequences by immunofluorescence of the yeast cell surface (Table 4). Because none of the anti-ApoE antibodies tested here recognize murine ApoE, the epitope was further narrowed down by comparison of the murine and human ApoE sequences as shown in Tables 4 and 5. DNA constructs containing different regions of ApoE4 with myc tag were transformed into yeast cells. Yeast cells were incubated with HJ15x to detect binding or anti-myc antibody to detect expression.

[2] = target: T2, ApoE4 amino acids 54-164, expressed on …; test: as above
Protocol: as §1

[3] = target: T3, ApoE4 amino acids 24-164, expressed on …; test: as above
Protocol: as §1

[4] = target: T4, ApoE4 amino acids 1-164, expressed on …; test: as above
Protocol: as §1

[5] = target: T8, recombinant alipidated human ApoE4 (human, UniProt P02649 19-317); test: direct ELISA on coated recombinant alipidated ApoE (0.5 ug/ml)
T8 construct: mature; full length recombinant protein made in E. coli or bought; biotinylated for SPR; position 112 is counted on the mature protein, not on the precursor entry; also called recApoE; non-lipidated ApoE4
T8 sequence (P02649 19-317 C130R): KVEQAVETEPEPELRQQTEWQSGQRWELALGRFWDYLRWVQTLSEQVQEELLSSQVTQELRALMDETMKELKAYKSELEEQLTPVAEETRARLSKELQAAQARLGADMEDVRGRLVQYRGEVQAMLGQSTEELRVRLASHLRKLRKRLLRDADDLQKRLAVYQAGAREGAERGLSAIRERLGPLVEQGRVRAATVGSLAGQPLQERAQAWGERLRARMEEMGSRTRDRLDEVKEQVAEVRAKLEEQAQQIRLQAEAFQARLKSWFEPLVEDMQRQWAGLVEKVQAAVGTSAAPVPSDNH
Protocol: (§2) ELISA dose response curves were generated for several anti-ApoE antibodies. Briefly, plates were coated overnight with full length recombinant alipidated ApoE2, ApoE3, or ApoE4 (0.5 μg/ml). The following days, plates were washed, blocked and then incubated with an anti-ApoE antibody. A goat, anti-mouse IgG-HRP antibody was used for secondary detection. Recombinant alipidated ApoE was either expressed solubly in E. coli and then purified, or purchased from a commercial supplier.

[6] = target: T9, recombinant alipidated human ApoE3 (human, UniProt P02649 19-317); test: as above
T9 construct: mature; full length recombinant protein made in E. coli or bought
T9 sequence (P02649 19-317): as the sequence (P02649 19-317 C130R) above, with R112C counted along it
Protocol: as §2

murine ApoE [7] = target: T5, murine ApoE; test: not described
[8] = target: T6, ApoE4 amino acids 1-132, expressed on …; test: yeast display of myc-tagged ApoE4 fragment, antibody staining
Protocol: as §1

[9] = target: T7, ApoE4 amino acids 24-125, expressed on …; test: as above
Protocol: as §1

[10] = target: T10, recombinant alipidated human ApoE2 (human, UniProt P02649 19-317); test: direct ELISA on coated recombinant alipidated ApoE (0.5 ug/ml)
T10 construct: mature; full length recombinant protein made in E. coli or bought
T10 sequence (P02649 19-317 R176C): as the sequence (P02649 19-317 C130R) above, with R112C, R158C counted along it
Protocol: as §2

[11] = target: T8, recombinant alipidated human ApoE4; test: SPR (Biacore T200), biotinylated ApoE4 captured on anti-biotin mAb chip, antibody injected, 1:1 fit
Protocol: The affinity of several anti-ApoE antibodies for ApoE4 was determined by surface plasmon resonance using a BIAcore T200. Anti-biotin monoclonal mouse antibody was immobilized on a Biacore Series S CM5 sensor chip. Biotinylated recombinant alipidated ApoE4 was then captured on to the chip. Serial dilutions of each antibody were injected at a flow rate of 30 μl/min. Each sample was analyzed, for example, with 3-minute association and 10-minute dissociation. After each injection the chip was regenerated using 3 M MgCl₂ or another appropriate buffer. Binding response was corrected by subtracting the response units (RUs) from a flow cell capturing an irrelevant IgG at similar density. A 1:1 Languir model of simultaneous fitting of Kₒₙ and Koff was used for kinetics analysis. Recombinant alipidated ApoE4 was either expressed in soluble form in E. coli and then purified, or purchased from a commercial supplier.

murine ApoE [12] = target: T5, murine ApoE; test: Western blot of mouse brain lysates
Text: Brain lysates from apoE KO mice or mice expressing human apoE3, human apoE4 or murine apoE were immunoblotted with HJ151, HJ152, HJ153, and HJ154. A commercial apoE antibody GA-50 was used as a positive control.

Row | Binder | binding result [1] | binding result [2] | binding result [3] | binding result [4] | EC50 [5] [nM] | EC50 [6] [nM] | binding result (murine ApoE [7]) | binding result [8] | binding result [9] | EC50 [10] [nM] | Kd [11] [nM] | koff [11] [s⁻¹] | kon [11] [M⁻¹ s⁻¹] | binding result (murine ApoE [12])
1 | B1 | binds | binds | binds | binds | 1.1 | 0.78 | no binding | – | – | – | – | – | – | –
2 | B2 | binds | binds | binds | binds | 0.04 | 0.05 | – | binds | binds | 0.03 | 670 | 0.00528 | 7880 | –
3 | B3 | binds | binds | binds | binds | 0.35 | 0.13 | – | – | – | – | 249 | 0.00116 | 4660 | no binding
